Luciferase assay, GFRAL/RET/SRE reporter HEK293 cells; EC80 of GDF15 and pERK assay, GFRAL/RET HEK293 cells; EC80 of GDF15 data for one substance are collected here from patent US20250382359A1.

The assay concerns the target GFRAL (co-expressed with RET on HEK293 stable cells) (UniProt Q6UXV0). Nature of the assay: cell-based or functional assay.

Sequence of GFRAL (co-expressed with RET on HEK293 stable cells) (Q6UXV0 19-394 limits assumed): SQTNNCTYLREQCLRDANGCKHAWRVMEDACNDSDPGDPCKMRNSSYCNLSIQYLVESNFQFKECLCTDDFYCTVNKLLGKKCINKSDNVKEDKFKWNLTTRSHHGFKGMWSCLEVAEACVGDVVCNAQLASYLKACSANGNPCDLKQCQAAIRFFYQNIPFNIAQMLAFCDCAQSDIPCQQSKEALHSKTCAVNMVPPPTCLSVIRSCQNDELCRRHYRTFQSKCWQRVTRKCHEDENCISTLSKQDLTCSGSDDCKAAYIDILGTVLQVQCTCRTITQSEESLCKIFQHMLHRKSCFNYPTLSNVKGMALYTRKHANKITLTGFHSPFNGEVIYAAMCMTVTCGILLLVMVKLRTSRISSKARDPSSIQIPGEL

“GDF15 (ligand used in the GFRAL/RET cell assays) (from UniProt Q99988 197-308)” returned a Luciferase assay, GFRAL/RET/SRE reporter HEK293 cells; EC80 of GDF15 of 2 nM and a pERK assay, GFRAL/RET HEK293 cells; EC80 of GDF15 of 850 pM.
